Results on one molecule are retold here after patent US20200055919A1 (ACCELERON PHARMA, published 2020).

Changes are numbered by the printed parent chain. Names and notes keep the numbering of the source.

Test [1] deals with T1, activin A (UniProt P08476 311-426).
T1 sequence (looked up): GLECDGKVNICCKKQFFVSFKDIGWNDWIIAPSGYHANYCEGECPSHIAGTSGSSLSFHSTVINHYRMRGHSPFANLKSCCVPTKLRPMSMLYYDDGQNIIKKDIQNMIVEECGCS
As to the kind of experiment: SPR (Biacore), 37 C. Here is the method:
(§1) A Biacore™-based binding assay was used to compare the ligand binding kinetics of an ActRIIB-Fc:ActRIIB(L79E)-Fc heterodimer with those of unmodified ActRIIB-Fc homodimer. Fusion proteins were captured onto the system using an anti-Fc antibody. Ligands were then injected and allowed to flow over the captured receptor protein at 37° C. Results are summarized in the table below, in which ligand off-rates (kd) most indicative of effective ligand traps are denoted in bold.
In general terms: SPR reads the build-up and loss of mass on a sensor chip optically.

In test [2] the target is T2, BMP10 (UniProt O95393 317-424).
T2 sequence (looked up): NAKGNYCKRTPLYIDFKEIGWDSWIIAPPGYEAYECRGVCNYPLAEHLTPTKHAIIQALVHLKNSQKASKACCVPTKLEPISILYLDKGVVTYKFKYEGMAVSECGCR
Put plainly: SPR (Biacore), 37 C. Here is the method: as §1

Test [3] deals with T1, activin A. Put plainly: SPR (Biacore), Fc fusion captured by anti-Fc antibody, ligand injected, 37 C. Here is the method: as §1
A further test addresses T3, activin B (UniProt P09529 293-407).
T3 sequence (looked up): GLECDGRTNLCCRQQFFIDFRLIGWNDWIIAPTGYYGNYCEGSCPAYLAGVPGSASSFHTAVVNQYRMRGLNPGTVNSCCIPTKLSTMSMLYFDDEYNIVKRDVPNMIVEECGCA
Described as above. As to the method: as §1

The next test addresses T4, GDF3 (UniProt Q9NR23 251-364).
T4 sequence (looked up): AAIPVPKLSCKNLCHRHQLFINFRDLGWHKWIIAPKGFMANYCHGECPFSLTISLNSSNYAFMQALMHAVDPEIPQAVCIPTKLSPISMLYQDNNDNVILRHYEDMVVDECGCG
Described as above. Here is the method: as §1

The target in another test is T5, GDF8 (UniProt O14793 267-375).
T5 construct: also called myostatin
T5 sequence (looked up): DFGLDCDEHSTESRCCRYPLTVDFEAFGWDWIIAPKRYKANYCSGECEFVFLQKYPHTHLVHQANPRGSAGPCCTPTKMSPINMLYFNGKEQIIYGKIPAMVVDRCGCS
The description is as above. As to the method: as §1

The target of the next test is T6, GDF11 (UniProt O95390 299-407).
T6 construct: also called BMP11
T6 sequence (looked up): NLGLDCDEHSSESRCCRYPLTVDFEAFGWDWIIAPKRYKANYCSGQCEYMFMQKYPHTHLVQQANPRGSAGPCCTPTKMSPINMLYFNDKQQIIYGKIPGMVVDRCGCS
The description is as above. Here is the method:
as §1

A further test deals with T7, BMP6 (UniProt P22004 382-513, limits assumed).
T7 sequence (looked up): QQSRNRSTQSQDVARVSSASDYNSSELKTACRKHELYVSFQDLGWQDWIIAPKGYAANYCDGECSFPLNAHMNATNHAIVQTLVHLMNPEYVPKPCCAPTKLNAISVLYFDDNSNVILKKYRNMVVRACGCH
The description is as above. As to the method: as §1

A further test deals with T8, BMP9 (UniProt Q9UK05 320-429).
T8 sequence (looked up): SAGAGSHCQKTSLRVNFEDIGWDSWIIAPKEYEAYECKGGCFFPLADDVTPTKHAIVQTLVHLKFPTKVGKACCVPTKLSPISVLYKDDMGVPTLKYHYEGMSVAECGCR
The description is as above. Here is the method:
as §1

Test [4] addresses T2, BMP10. The test is described as above. As to the method: as §1

B1: ActRIIB-Fc:ActRIIB(L79E)-Fc heterodimer (Fc fusion)
chain 1: GRGEAETRECIYYNANWELERTNQSGLERCEGEQDKRLHCYASWRNSSGTIELVKKGCWEDDFNCYDRQECVATEENPQVYFCCCEGNFCNERFTHLPEAGGPEVTYEPPPTAPT
chain 2: B1 chain 1 with E60L
notes: also called ActRIIB-Fc:ActRIIB(L79E)-Fc heteromer; not shown: linker and engineered G1Fc; linker and complementary engineered G1Fc
One may read the Kd as the equilibrium constant for the complex coming apart. Lower therefore signals tighter binding. In general, koff refers to a measure of how fast the partners let go of each other. The low end stands for a long-lived complex, the high end for a short-lived complex. For orientation: kon means a measure of how fast the partners come together. Consider B1, for which the “fold faster off-rate compared to ActRIIB-Fc homodimer” value in the test with activin A [1] and in the test with BMP10 [2] was ~10 fold throughout. The Kd with activin A [3] came to 170 pM; with activin B, 25 pM; with GDF3 it was 10000 pM; with GDF8, 150 pM; in the test with GDF11, 9 pM; in the test with BMP6, 56 pM. Moreover, the values for the Kd in the test with BMP9 and with BMP10 [4] were > 2800 pM and 42 pM, respectively. The koff with activin A [3] was 0.0015 s⁻¹; in the test with activin B it was 0.00021 s⁻¹; with GDF3, 0.0059 s⁻¹; with GDF8 it was 0.0005 s⁻¹; with GDF11 it was 0.00036 s⁻¹; with BMP6, 0.018 s⁻¹. The molecule also came in with a koff with BMP10 [4] of 0.002 s⁻¹. In addition, the kon in the test with activin A [3] was 8.8e+06 M⁻¹ s⁻¹; with activin B, 8.3e+06 M⁻¹ s⁻¹; in the test with GDF3, 580000 M⁻¹ s⁻¹; with GDF8 it was 3.4e+06 M⁻¹ s⁻¹; with GDF11, 4e+07 M⁻¹ s⁻¹; in the test with BMP6 it was 3.3e+08 M⁻¹ s⁻¹. Further, the kon with BMP10 [4] was 4.8e+07 M⁻¹ s⁻¹.
